Test results from the RNAGym collection of RNA variant scans (doi:10.7554/elife.80360).

B1: Hairpin Ribozyme (parent)
chain: GUCCUCUUUCACGUGCGCGUGAAAGAGAGAAGUGAACCAGAGAAACACACGUUGUGGUAUAUUACCUGGUA

Variants of: B1
Experiment: self-cleavage, relative activity (ratio to wild type); higher = more cleavage; co-transcriptional

Variant	self-cleavage
GUCCUCUUUCACGUUCGCGUGAAAGAGAGAAGUGAACCAGAGAAACACACGUUGUGGUAUAUUACCUGGUG	1.12
GUCCUCUUUCACGUCCGCGUGAAAGAGAGAAGUGAACCAGAGAAACACACGUUGUUGUAUAUUACCUGGUA	0.113
GUCCUCUUUCACGUCCGCGUGAAAGAGAGAAGUGAACCAGAGAAACACACGUUGUCGUAUAUUACCUGGUA	0.113
GUCCUCUUUCACGUCCGCGUGAAAGAGAGAAGUGAACGAGAGAAACACACGUUGUGGUAUAUUACCUGGUA	0.127
GUCCUCUUUCACGUCCGCGUGAAAGAGAGAAGUGAACAAGAGAAACACACGUUGUGGUAUAUUACCUGGUA	0.22
GUCCUCUUUCACGUCCGCGUGAAUGAGAGAAGUGAACCAGAGAAACACACGUUGUGGUAUAUUACCUGGUA	0.884
GUCCUCUUUCACGUUCGCGUGAAAGAGAGAAGUGAACCAGAGGAACACACGUUGUGGUAUAUUACCUGGUA	0.151
GUCCUCUUUCACGUUCGCGUGAAAGAGAGAAGUGAACCAGAGUAACACACGUUGUGGUAUAUUACCUGGUA	0.104
GUCCUCUUUCACGUCCGCGUGAUAGAGAGAAGUGAACCAGAGAAACACACGUUGUGGUAUAUUACCUGGUA	1.02
GUCCUCUUUCACGUCCGCGUGACAGAGAGAAGUGAACCAGAGAAACACACGUUGUGGUAUAUUACCUGGUA	0.868
GUCCUCUUUCACGUUCGCGUGAAAGUGAGAAGUGAACCAGAGAAACACACGUUGUGGUAUAUUACCUGGUA	0.831
GUCCUCUUUCACGUUCGCGUGAAAGCGAGAAGUGAACCAGAGAAACACACGUUGUGGUAUAUUACCUGGUA	0.96
GUCCUCUUUCACGUUCGCGUGAAAGAGAGUAGUGAACCAGAGAAACACACGUUGUGGUAUAUUACCUGGUA	0.146
GUCCUCUUUCACGUCCGCGUGAAAGAGAGAAGUGAACCAGAGAAACACACGUUGUGCUAUAUUACCUGGUA	0.137
GUCCUCUUUCACGUCCGCAUGAAAGAGAGAAGUGAACCAGAGAAACACACGUUGUGGUAUAUUACCUGGUA	0.913
GUCCUCUUUCACGUCCGCGUGAAAGAGAGAAGUGAACCAGAGAAACACACGUUGUGGUAUACUACCUGGUA	0.0966
GUCCUCUUUCACGUCCGCGUGAAAGAGAGAAGUGAACCAGAUAAACACACGUUGUGGUAUAUUACCUGGUA	0.19
GUCCUCUUUCACGUCCGCGUGAAAGAGCGAAGUGAACCAGAGAAACACACGUUGUGGUAUAUUACCUGGUA	0.407
GUCCUCUUUCACGUCCGCGUGAAAGAGGGAAGUGAACCAGAGAAACACACGUUGUGGUAUAUUACCUGGUA	1.29

Variant	self-cleavage
GUCCUCUUUCACGUCCGCGUGAAAGAGAGAAGUGAAGCAGAGAAACACACGUUGUGGUAUAUUACCUGGUA	0.298
GUCCUCUUUCACGUUCGCGUGAAAGAGUGAAGUGAACCAGAGAAACACACGUUGUGGUAUAUUACCUGGUA	0.765
GUCCUCUUUCACGUCCGCGUGAAAGAGAGAAGUGAACCAGAGAAACACACGUUGUGGUAUUUUACCUGGUA	0.181
GUCCUCUUUCACGUCCGCGUGAAAGAGAGAAGUGAACCAGAGAAACACACGUUGUGGUAUGUUACCUGGUA	0.173
GUCCUCUUUCACGUUCGCGUGAAAGAGAGAAGUGAACCAGAGAAACACCCGUUGUGGUAUAUUACCUGGUA	0.0683
GUCCUCUUUCACGUUCGCGUGAAAGAGAGAAGUGAACCAGAGAAACACUCGUUGUGGUAUAUUACCUGGUA	0.0651
GUCCUCUUUCACGUCCGCGUGAAAUAGAGAAGUGAACCAGAGAAACACACGUUGUGGUAUAUUACCUGGUA	0.637
GUCCUCUUUCACGUCCGCGUGAAAAAGAGAAGUGAACCAGAGAAACACACGUUGUGGUAUAUUACCUGGUA	0.607
GUCCUCUUUCACGUCCUCGUGAAAGAGAGAAGUGAACCAGAGAAACACACGUUGUGGUAUAUUACCUGGUA	0.959
GUCCUCUUUCACGUCCGCGUGAAAGAGAGAAGUAAACCAGAGAAACACACGUUGUGGUAUAUUACCUGGUA	1.02
GUCCUCUUUCACGUCCGCGUGAAAGAGAGAAGUCAACCAGAGAAACACACGUUGUGGUAUAUUACCUGGUA	0.578
GUCCUCUUUCACGUCCGCGUGAAAGAGAGAAGUGAACCAGAGAAACUCACGUUGUGGUAUAUUACCUGGUA	0.142
GUCCUCUUUCACGUCCGCGUGAAAGAGAGAAGUGAACCAGAGAACCACACGUUGUGGUAUAUUACCUGGUA	0.18
GUCCUCUUUCACGUCCGCGUGAAAGAGAGAAGUGGACCAGAGAAACACACGUUGUGGUAUAUUACCUGGUA	1.08
GUCCUCUUUCACGUCCGCGUGAAAGAGAGAAGUGAACCAGAGAAAUACACGUUGUGGUAUAUUACCUGGUA	0.151
GUCCUCUUUCACGUUCGCGUGAAAGAGAGAAGUGAACCAGAGAAACACACGUUGUGGUGUAUUACCUGGUA	0.161
GUCCUCUUUCACGUACGCGUGAAAGAGAGAAGUGAACCAGAGAAACACACGUUGUGGUACAUUACCUGGUA	0.853
GUCCUCUUUCACGUCUGCGUGAAAGAGAGAAGUGAACCAGAGAAACACACGUUGUGGUAUAUUACCUGGUA	1.29
GUCCUCUUUCACGUCCGCGUGAAAGAGAGAAGUGAACCAGAGAAACACACGUUGUGGUUUAUUACCUGGUA	0.224
